Data: the Human Domainome abundance scans (Beltran et al. 2025)
± gives the uncertainty stated by the source.

B1: Apoptosis-associated speck-like protein containing a CARD, residues 114 to 194; numbered along this chain, Q9ULZ3 (parent)
chain: FIDQHRAALIARVTNVEWLLDALYGKVLTDEQYQAVRAEPTNPSKMRKLFSFTPAWNWTCKDLLLQALRESQSYLVEDLER

Variants of: B1
Experiment: abundance fitness (aPCA) (normalised: wild type 0, dead -1); higher = more abundant; growth selection in yeast, the domain comes from the species named
Conditions: Homo sapiens

Abundance fitness of substitutions, site by site:
P40: D -0.38 ± 0.16, K -0.123 ± 0.086, G -0.425 ± 0.042, C -0.434 ± 0.096, R -0.167 ± 0.041, T -0.202 ± 0.07, E -0.257 ± 0.086, S -0.291 ± 0.063, I -0.339 ± 0.14, A -0.256 ± 0.068, Y -0.633 ± 0.19, F -0.912 ± 0.28, M -0.896 ± 0.24, L -0.587 ± 0.074, W -0.832 ± 0.12, N -0.419 ± 0.18
R37: H -0.252 ± 0.1, T -0.182 ± 0.075, P -0.792 ± 0.13, Y -0.118 ± 0.12, W -0.373 ± 0.059, S -0.104 ± 0.06, C -0.208 ± 0.088, D -0.219 ± 0.074, I 0.063 ± 0.11, A 0.039 ± 0.043, F -0.509 ± 0.15, L 0.067 ± 0.042, K -0.111 ± 0.1, V -0.148 ± 0.042, Q -0.008 ± 0.083, G -0.479 ± 0.052, E -0.304 ± 0.063, M 0.136 ± 0.073, N -0.1 ± 0.21
T41: C -0.28 ± 0.077, M -0.701 ± 0.13, E -0.782 ± 0.17, A -0.52 ± 0.081, P -0.845 ± 0.15, L -0.834 ± 0.11, Y -0.519 ± 0.24, F -1.2 ± 0.31, N 0.045 ± 0.1, K -0.755 ± 0.18, W -0.653 ± 0.098, Q -0.517 ± 0.14, S -0.199 ± 0.057, G -0.484 ± 0.048, V -0.707 ± 0.087, R -0.907 ± 0.1
K48: S -0.891 ± 0.12, G -0.877 ± 0.096, A -0.745 ± 0.081, L -0.347 ± 0.063, D -0.745 ± 0.26, H -0.655 ± 0.34, R -0.185 ± 0.051, I -0.779 ± 0.32, N -0.802 ± 0.22, F -0.585 ± 0.12, V -0.469 ± 0.063, C -0.667 ± 0.14, Y -1.05 ± 0.3, W -0.35 ± 0.088, E -0.963 ± 0.21, Q -0.674 ± 0.16, P -0.71 ± 0.11, M -0.221 ± 0.079, T -0.635 ± 0.12
E39: R -0.692 ± 0.075, P -0.914 ± 0.2, G -0.669 ± 0.088, L -0.303 ± 0.06, F -0.714 ± 0.13, T -0.789 ± 0.17, Y -0.49 ± 0.18, W -0.946 ± 0.19, N -0.26 ± 0.24, K -0.549 ± 0.11, C -0.088 ± 0.074, Q -0.293 ± 0.11, A -0.474 ± 0.094, I -0.909 ± 0.25, V -0.815 ± 0.097, S -0.842 ± 0.11, H -0.79 ± 0.38, M -0.129 ± 0.1
V36: Y -0.973 ± 0.25, P -0.89 ± 0.19, I -0.143 ± 0.13, C 0.04 ± 0.069, R -0.833 ± 0.1, W -0.74 ± 0.095, K -0.325 ± 0.12, T -1.01 ± 0.24, D -0.79 ± 0.21, H -0.819 ± 0.28, N -0.823 ± 0.46, S -0.334 ± 0.064, F -0.548 ± 0.12, A -0.46 ± 0.08, E -0.801 ± 0.12, G -0.691 ± 0.08, M -0.837 ± 0.27, L -0.846 ± 0.11
Y33: W -0.524 ± 0.11, V 0.136 ± 0.047
F50: I -0.418 ± 0.13, D -1.06 ± 0.48, R -0.81 ± 0.086, P -0.607 ± 0.098, K -1.02 ± 0.32, W -0.693 ± 0.097, H -0.948 ± 0.31, V -0.536 ± 0.073, Y 0.015 ± 0.26, L 0.182 ± 0.046, N -0.775 ± 0.33, Q -0.871 ± 0.18, M 0.113 ± 0.071, C -0.937 ± 0.17, E -0.799 ± 0.19, S -0.822 ± 0.1
S51: D -0.169 ± 0.095, I -0.904 ± 0.32, F -0.633 ± 0.14, K -0.96 ± 0.16, Q -0.205 ± 0.08, P -0.796 ± 0.06, L -0.938 ± 0.13, E -0.012 ± 0.068, G -0.587 ± 0.057, C -0.429 ± 0.12, R -0.839 ± 0.083, N -0.806 ± 0.22, A -0.422 ± 0.063, W -0.849 ± 0.15, M -0.321 ± 0.11, Y -0.843 ± 0.2, T -0.141 ± 0.056
T53: K -0.957 ± 0.27, G -0.663 ± 0.058, H -0.394 ± 0.16, E -0.126 ± 0.068, I -0.055 ± 0.12, P -1.03 ± 0.22, M 0.015 ± 0.079, F -0.342 ± 0.15, D -0.855 ± 0.21, L 0.071 ± 0.056, C -0.347 ± 0.083
K45: Q -0.695 ± 0.19, L -0.918 ± 0.11, P -0.803 ± 0.15, E -0.846 ± 0.19, G -0.768 ± 0.072, T -0.764 ± 0.13, M -0.34 ± 0.13, S -0.273 ± 0.07, W -0.852 ± 0.24, A -0.615 ± 0.083, V -0.609 ± 0.073, C -0.887 ± 0.16, D -1 ± 0.27, H -1.06 ± 0.48, R -0.317 ± 0.053
R47: L -0.319 ± 0.052, N -0.214 ± 0.17, T -0.04 ± 0.076, I -0.254 ± 0.11, V -0.155 ± 0.052, G -0.62 ± 0.061, H -0.452 ± 0.12, S -0.197 ± 0.052, P -0.814 ± 0.12, K -0.008 ± 0.087, A 0.013 ± 0.055, D -0.517 ± 0.16, Q -0.051 ± 0.072, M -0.166 ± 0.083, W -0.497 ± 0.066, Y -0.872 ± 0.31, F -0.786 ± 0.18, C -0.139 ± 0.079, E 0.037 ± 0.081
S44: Y -1.01 ± 0.28, T -0.097 ± 0.066, M 0.024 ± 0.089, P -0.868 ± 0.14, G -0.063 ± 0.042, Q 0.061 ± 0.061, N -0.511 ± 0.36, W -0.531 ± 0.073, C -0.268 ± 0.089, K -0.265 ± 0.1, A 0.116 ± 0.044, L 0.031 ± 0.05, R -0.064 ± 0.054, D 0.091 ± 0.085, F -0.842 ± 0.2, V -0.947 ± 0.12, I -0.398 ± 0.33
F52: S -0.948 ± 0.12, T -1.03 ± 0.21, Y -0.105 ± 0.085, K -1 ± 0.35, A -0.732 ± 0.092, R -0.824 ± 0.096, M -0.454 ± 0.24, I -0.53 ± 0.19, N -0.836 ± 0.45, V -0.649 ± 0.056, C -0.966 ± 0.18, Q -0.427 ± 0.16, G -0.943 ± 0.077, P -0.979 ± 0.19, D -0.996 ± 0.21, W -0.696 ± 0.087
L49: S -0.798 ± 0.1, F -0.811 ± 0.37, D -0.914 ± 0.23, G -0.79 ± 0.073, E -0.979 ± 0.15, A -0.93 ± 0.11, M -0.888 ± 0.16, P -0.73 ± 0.12, H -0.664 ± 0.38, Y -0.846 ± 0.22, N -0.209 ± 0.14, I -0.444 ± 0.17, V -0.837 ± 0.089
A38: L -0.176 ± 0.05, H -0.226 ± 0.14, Y -1.08 ± 0.48, E -0.15 ± 0.078, F -0.312 ± 0.11, I -0.413 ± 0.1, V -0.419 ± 0.06, N -0.308 ± 0.21, T -0.552 ± 0.11, C -0.297 ± 0.087, P -0.935 ± 0.17, K -0.088 ± 0.074, M -0.11 ± 0.071, Q -0.179 ± 0.078, W -0.861 ± 0.16, D -0.258 ± 0.094, S -0.056 ± 0.051
P43: V -0.096 ± 0.053, A -0.045 ± 0.054, N -0.241 ± 0.11, M -0.138 ± 0.07, G -0.27 ± 0.052, C -0.147 ± 0.08, S -0.061 ± 0.046, H -0.221 ± 0.13, Q 0.065 ± 0.097, R -0.091 ± 0.039, W -0.313 ± 0.068, I -0.566 ± 0.19, L -0.263 ± 0.046, Y -0.593 ± 0.13, F -0.395 ± 0.15, T 0.04 ± 0.068, K -0.114 ± 0.086, E 0.07 ± 0.072
Q34: C -0.3 ± 0.11, F -0.433 ± 0.13, E -0.052 ± 0.081, L -0.295 ± 0.064, G -0.599 ± 0.061, P -0.817 ± 0.13, I -0.81 ± 0.29, K -0.143 ± 0.13, W -0.123 ± 0.073, M -0.329 ± 0.097, S -0.388 ± 0.08, H 0.05 ± 0.095, T -0.285 ± 0.11, D -0.185 ± 0.21, R -0.003 ± 0.052, N -0.004 ± 0.12, V -0.417 ± 0.059, Y -0.332 ± 0.21
M46: G -0.949 ± 0.089, V -0.353 ± 0.054, F -0.807 ± 0.15, D -1.03 ± 0.32, E -0.831 ± 0.16, A -0.679 ± 0.056, L -0.298 ± 0.06, Y -0.707 ± 0.13, R -0.653 ± 0.068, Q -0.717 ± 0.22, P -0.542 ± 0.11, C -1.02 ± 0.27, S -0.933 ± 0.13, W -0.696 ± 0.12, T -0.77 ± 0.14, I -0.778 ± 0.32
N42: Y -0.896 ± 0.36, F -0.372 ± 0.14, Q -0.488 ± 0.11, D -0.221 ± 0.099, P -0.306 ± 0.077, V -0.596 ± 0.082, R -0.562 ± 0.057, S -0.445 ± 0.061, A -0.188 ± 0.076, I 0.082 ± 0.31, W -0.582 ± 0.076, C -0.616 ± 0.1, K -0.74 ± 0.24, G -0.331 ± 0.05, E -0.337 ± 0.085, T -0.336 ± 0.11, L -0.337 ± 0.061, M -0.48 ± 0.096, H -0.624 ± 0.14
A35: G -0.472 ± 0.061, P -0.664 ± 0.12, N -0.851 ± 0.29, F -0.84 ± 0.17, T -0.348 ± 0.074, V -0.365 ± 0.051, E -0.064 ± 0.061, S -0.08 ± 0.052, I -0.862 ± 0.44, Q -0.011 ± 0.076, K -0.224 ± 0.14, R -0.491 ± 0.059, L -0.218 ± 0.054, W -0.957 ± 0.17
